Numbering of substitutions follows the chain as printed.
T1: Macaca fascicularis CEACAM6, extracellular (mature form), obtained by Factor Xa cleavage of TPP-2443 (Macaca fascicularis)
T1 construct: used biotinylated in some assays; also called APP-319; Cynomolgus CEACAM6
T1 chain: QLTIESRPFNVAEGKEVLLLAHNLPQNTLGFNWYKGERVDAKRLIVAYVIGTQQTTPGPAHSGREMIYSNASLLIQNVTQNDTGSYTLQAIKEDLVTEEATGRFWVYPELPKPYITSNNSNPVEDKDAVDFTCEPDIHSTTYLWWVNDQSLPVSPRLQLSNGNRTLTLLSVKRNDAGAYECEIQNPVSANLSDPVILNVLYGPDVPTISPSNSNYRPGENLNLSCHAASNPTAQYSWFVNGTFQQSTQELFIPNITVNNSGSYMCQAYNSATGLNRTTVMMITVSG

T2: human CEACAM6, extracellular (mature form), R&D Systems 3934-CM (human, UniProt P40199 35-320)
T2 construct: used biotinylated in some assays; also called TPP-1436; Recombinant human CEACAM6
T2 sequence: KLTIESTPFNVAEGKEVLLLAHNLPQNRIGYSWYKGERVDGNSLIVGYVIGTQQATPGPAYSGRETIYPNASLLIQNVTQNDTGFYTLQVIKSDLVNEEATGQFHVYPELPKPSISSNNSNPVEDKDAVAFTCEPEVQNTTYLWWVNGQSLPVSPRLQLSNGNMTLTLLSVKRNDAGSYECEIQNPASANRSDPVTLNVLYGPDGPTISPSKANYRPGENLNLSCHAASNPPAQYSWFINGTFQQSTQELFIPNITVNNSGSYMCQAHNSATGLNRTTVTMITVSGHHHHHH

T3: human CEACAM3, extracellular (mature form), Sino Biological Inc. 11933-H08H (human, UniProt P40198 35-155)
T3 construct: used biotinylated in some assays; also called TPP-2755
T3 sequence: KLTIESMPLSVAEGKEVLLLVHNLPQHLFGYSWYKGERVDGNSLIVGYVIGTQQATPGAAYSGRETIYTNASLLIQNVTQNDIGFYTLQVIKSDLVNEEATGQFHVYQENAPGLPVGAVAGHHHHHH

T4: Macaca fascicularis CEACAM6-Domain 1-His (expressed in E. coli) (Macaca fascicularis)
T4 construct: entry includes the His tag; also called TPP-2453; Recombinant single domain 1 of Macaca fascicularis CEACAM6
T4 chain: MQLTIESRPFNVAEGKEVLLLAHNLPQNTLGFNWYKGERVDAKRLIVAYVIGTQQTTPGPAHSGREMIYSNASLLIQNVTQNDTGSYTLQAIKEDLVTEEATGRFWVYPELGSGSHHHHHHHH

T5: Human CEACAM6-Domain 1-His (expressed in E. coli), wild-type (human)
T5 construct: entry includes the His tag; also called hDOM1
T5 chain: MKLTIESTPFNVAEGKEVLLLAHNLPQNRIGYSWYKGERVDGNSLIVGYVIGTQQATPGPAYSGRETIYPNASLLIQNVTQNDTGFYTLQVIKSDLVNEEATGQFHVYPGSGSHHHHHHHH

T6: Macaca fascicularis (cynomolgus) CEACAM6, full-length, on transfected HeLa cells (Macaca fascicularis, GPI anchor at the C-terminus on the cell surface, not carried by the letters)
T6 construct: also called TPP-4189; HeLa Cynomolgus CEACAM6
T6 chain: T1 chain

B1: TPP-3821 (antibody, human IgG2, kappa, V domains shown)
VH: QVTLRESGPALVKPTQTLTLTCTFSGFSLSTYGIGVGWIRQPPGKALEWLAHIWWNDNKYYSTSLKTRLTISKDTSKNQVVLTMTNMDPVDTATYYCARISLPYFDYWGQGTLVTVSS
VL: DIQLTQSPSFLSASVGDRVTITCKASQNVGTAVAWYQQKPGKAPKLLIYSASNRYTGVPSRFSGSGSGTEFTLTISSLQPEDFATYYCQQYNNYPLTFGGGTKVEIKR
notes: humanized from TPP-3187, human IgG2; also called 3187HU2-hIgG2Kappa
B2: TPP-3310 (antibody, human IgG2, kappa)
heavy: QVTLRESGPALVKPTQTLTLTCTFSGFSLSTYGIGVGWIRQPPGKALEWLAHIWWNDNKYYSTSLKTRLTISKDTSKNQVVLTMTNMDPVDTATYYCARISLPYFDYWGQGTTLTVSSASTKGPSVFPLAPCSRSTSESTAALGCLVKDYFPEPVTVSWNSGALTSGVHTFPAVLQSSGLYSLSSVVTVPSSNFGTQTYTCNVDHKPSNTKVDKTVERKCCVECPPCPAPPVAGPSVFLFPPKPKDTLMISRTPEVTCVVVDVSHEDPEVQFNWYVDGVEVHNAKTKPREEQFNSTFRVVSVLTVVHQDWLNGKEYKCKVSNKGLPAPIEKTISKTKGQPREPQVYTLPPSREEMTKNQVSLTCLVKGFYPSDIAVEWESNGQPENNYKTTPPMLDSDGSFFLYSKLTVDKSRWQQGNVFSCSVMHEALHNHYTQKSLSLSPG
light: DIQLTQSPSFLSASVGDRVTITCKASQNVGTAVAWYQQKPGKAPKLLIYSASNRYTGVPSRFSGSGSGTEFTLTISSLQPEDFATYYCQQYSSYPLTFGGGTKVEIKRTVAAPSVFIFPPSDEQLKSGTASVVCLLNNFYPREAKVQWKVDNALQSGNSQESVTEQDSKDSTYSLSSTLTLSKADYEKHKVYACEVTHQGLSSPVTKSFNRGEC
notes: humanized from TPP-2971, human IgG2; also called TPP-2971HU1-hIgG2Kappa
B3: TPP-3820 (antibody, human IgG2, kappa, V domains shown)
VH: B1 VH with S30T, A46G
VL: B1 VL
notes: humanized from TPP-3187, human IgG2; also called 3187HU1-hIgG2Kappa
B4: TPP-2971 (antibody, mouse IgG1, V domains shown)
VH: QVTLKESGPGILQPSQTLSLTCSFSGFSLSTYGIGVGWIRQPSGKDLEWLAHIWWNDNKYYNTALKSRLTISKDTSNNQVFLKIASVDTADTATYYCARISLPYFDYWGQGTTLTVSS
VL: DIVMTQSQKFMSTSVGDRVSITCKASQNVGTAVAWYQQKPGQSPKLLIYSASNRYTGVPDRFTGSGSGTDFTLTISNMQSEDLADYFCQQYSSYPLTFGAGTKLELK
notes: murine hybridoma antibody, mouse IgG1; also called 792.15H12C9
B5: TPP-3705 (antibody, human IgG2, kappa, V domains shown)
VH: EVQLVESGGGLVQPGGSLRLSCAASGFTFSLYQMHWVRQAPGKGLEWVSWISFSGGNTGYADSVKGRFTISRDNSKNTLYLQMNSLRAEDTAVYYCARATGYSSPWYLDPWGQGTLVTVSS
VL: DIQMTQSPSSLSASVGDRVTITCQASHEIDNYLNWYQQKPGKAPKLLIYDAYWLKTGVPSRFSGSGSGTDFTLTISSLQPEDIATYYCQGYDDLSVTFGGGTKVDIKR
notes: also called 090E-M007-A09-Mat1-hIgG2-hIgG2Kappa
B6: TPP-3707 (antibody, human IgG2, kappa, V domains shown)
VH: B5 VH
VL: B5 VL with L54S
notes: also called 090E-M007-A09-Mat2-hIgG2-hIgG2Kappa
B7: TPP-3187 (antibody, mouse IgG1, V domains shown)
VH: B4 VH with S30T, D46G
VL: B4 VL with S92N, S93N
notes: murine hybridoma antibody, mouse IgG1; also called 792.15C4F4
B8: TPP-3323 (antibody, human IgG2, kappa, V domains shown)
VH: B4 VH with S30T, D46G
VL: DIVMTQSQKFMSTSVGDRVSITCKASQNVGTAVAWYQQKPGQSPKLLIYSASNRYTGVPDRFTGSGSGTDFTLTISNMQSEDLADYFCQQYNNYPLTFGAGTKLELKR
notes: human IgG2 chimera; also called TPP-3187X1-hIgG2; hIgG2 chimera of TPP-3187
B9: TPP-3308 (antibody, human IgG2, kappa, V domains shown)
VH: B4 VH
VL: B8 VL with N92S, N93S
notes: human IgG2 chimera; also called TPP-2971X1-hIgG2Kappa; hIgG2 chimera of TPP-2971

Target: T1, Macaca fascicularis CEACAM6, …
Assay: SPR, antibody captured, antigen as analyte
Description: (§1) Surface plasmon resonance (SPR) experiments for quantitative binding analyses were performed either using a Biacore T100, Biacore T200 or a Biacore 4000 instrument (GE Healthcare Biacore, Inc.) equipped with Series S Sensor Chips CM5 (GE Healthcare Biacore, Inc.). Binding assays were carried out at 25° C. with assay buffer HBS-EP+(10 mM HEPES pH 7.4, 150 mM NaCl, 3 mM EDTA, 0.05% Surfactant P20). Antibodies were captured with an anti-hIgG capture antibody covalently immobilized to the chip surface via amine coupling chemistry. Reagents for amine coupling (1-ethyl-3-(3-dimethylaminopropyl) carbodiimide hydrochloride (EDC), N-hydroxysuccinimide (NHS), ethanolamine-HCl pH 8.5) were used from the Amine Coupling Kit (GE Healthcare, product code BR-1000-50). Anti-hIgG, anti-mIgG capture antibodies and immobilization buffer (10 mM sodium acetate pH 5.0) were used from the Human Antibody Capture Kit (GE Healthcare, BR-1008-39) and the Mouse Antibody Capture Kit (GE Healthcare, BR-1008-38), respectively. The sensor chip surface was activated with a freshly prepared solution of 0.2 M EDC and 0.05 M NHS passed over the chip surface for 420 s at a flow rate of 10 μl/min, followed by an injection of anti-hIgG or anti-mIgG capture antibody (dissolved to 25 μg/ml in immobilization buffer) for 180 s at a flow rate of […]. Excess of activated groups were blocked with a 1 molar solution of ethanolamine injected at a flow rate of 10 μl/min for 420 s.
(§2) CEACAM antigens were used as analyte to determine KD values. Antibodies were captured for 20 s at a flow rate of 10 μl/min prior to each analyte injection.
(§3) Obtained sensorgrams were double-referenced, i.e. in-line reference cell correction followed by buffer sample subtraction.

Row | Kd | Binder
1 | 49 nM | B1
2 | 31 nM | B2
3 | 54 nM | B3
4 | 25 nM | B4
5 | 32 nM | B5
6 | 32 nM | B6

Target: T2, human CEACAM6, extracellular (mature …)
Assay: SPR, antibody captured, antigen as analyte
Description: as §1, §2, §3

Row | Kd | Binder
7 | 24 nM | B1
8 | 13 nM | B2
9 | 27 nM | B3
10 | 61 nM | B4
11 | 68 nM | B7
12 | 28 nM | B5
13 | 28 nM | B6

Target: T3, human CEACAM3, extracellular (mature …)
Assay: SPR, antibody captured, antigen as analyte
Description: as §1, §2, §3

Row | binding result | Binder
14 | no binding (tested: 200 nM) | B1
15 | no binding (tested: 200 nM) | B2
16 | no binding (tested: 200 nM) | B3
17 | no binding (tested: 200 nM) | B4
18 | no binding (tested: 200 nM) | B7

Target: T4, Macaca fascicularis CEACAM6-Domain …
Assay: SPR, antibody captured, antigen as analyte
Description: as §1, §2

Row | Kd | Binder
19 | 4.7 nM | B1
20 | 3.4 nM | B2
21 | 5.2 nM | B3
22 | 5.3 nM | B4
23 | 6.9 nM | B8
24 | 6.9 nM | B7
25 | 5.4 nM | B9
26 | 2.7 nM | B5
27 | 2.4 nM | B6

Target: T5, Human CEACAM6-Domain 1-His (expressed …)
Assay: SPR, antibody captured, antigen as analyte
Description: as §1, §2

Row | Kd | Binder
28 | 4.5 nM | B1
29 | 3.7 nM | B2
30 | 5.1 nM | B3
31 | 11 nM | B4
32 | 9 nM | B8
33 | 12 nM | B7
34 | 9.5 nM | B9
35 | 6.7 nM | B5
36 | 6.4 nM | B6

Target: T6, Macaca fascicularis (cynomolgus) …
Assay: FACS, transfected HeLa cells
Description: For FACS experiments HeLa wild type cells were cultured in RPMI-1640, 10% FCS, while CEACAM-receptor transfected HeLa cells received in addition 0.5% Gentamycin (stock 10 mg/ml, Fa. PAA) and 200 μg/ml Hygromycin B (stock 50 mg/ml, Invitrogen). Cells were washed 3 times with PBS w/o Ca²⁺/Mg²⁺ and were detached from the culture plate non-enzymatically with EDTA dissociation buffer (Gibco). Cells were washed in cold FACS buffer (PBS w/o Ca²⁺/Mg²⁺ and heat-inactivated 3% FCS) and were counted using a countess machine (Invitrogen). 10⁵ cells per well were plated and incubated with the respective primary antibody (5 μg/ml) for 1 h at 4° C. on a plate shaker. […] After 2 times washing the cells were resuspended in 100 μl FACS buffer and were analysed on a FACS Canto II machine (Beckton Dickinson) or a FACS Array (Beckton Dickinson).
For EC₅₀ analysis, the primary antibodies were used at increasing concentrations in a range from 0.1 nM to 100 nM. Half maximal binding values (EC₅₀) were determined by plotting the median fluorescence intensity signal against the concentration (logarithmic scale). Curve fitting of data was performed using the Graph Pad prism analysis software.

Row | EC50 | FACS median fluorescence | Binder
37 | 1 nM | – | B1
38 | 1.5 nM | – | B2
39 | 1 nM | – | B3
40 | 0.5 nM | 100 to 1000 medianfluorescence | B4
41 | 0.8 nM | 100 to 1000 medianfluorescence | B8
42 | 4 nM | 100 to 1000 medianfluorescence | B7
43 | 0.6 nM | 100 to 1000 medianfluorescence | B9
44 | 4 nM | – | B6
